Results: patent US20200071424A1

How the values were obtained:
[1] = target: human-mouse chimeric EL (construct not specified); assay: Biacore; EL captured by anti-C2-tag Ab; bivalent fit
[2] = target: human-mouse chimeric EL (construct not specified); assay: cell-based or functional assay
[3] = target: cynomolgus monkey EL (cynomolgus monkey); assay: Biacore; EL captured by anti-C2-tag Ab; bivalent fit
[4] = target: cynomolgus monkey EL (cynomolgus monkey); assay: cell-based or functional assay

Row | Binder | Kd [1] [nM] | koff [1] [s⁻¹] | kon [1] [M⁻¹ s⁻¹] | Neutralizing activity IC50 [2] [nM] | Kd [3] [nM] | koff [3] [s⁻¹] | kon [3] [M⁻¹ s⁻¹] | Neutralizing activity IC50 [4] [nM]
1 | h12B10-S1 (antibody, V domains shown) VH: EVQLVESGGGLVKPGGSLRLSCAASGFSLSTSGMGVGWVRQAPGKGLEWLAHIWWNDEKYYNPSLKSRFTISRDDSKNTLYLQMNSLKTEDTAVYYCARDHLAYYFDVWGQGTLVTVSS VL: DIQMTQSPSSLSASVGDRVTITCKASQDINKYIAWYQQKPGKAPKLLMAYPFTLQPGVPSRFSGSGSGTDFTLTISSLQPEDFATYYCLQYDNLLWTFGQGTKVEIK | 1.9 | 0.00035 | 190000 | 6 | – | – | – | –
2 | h12B10-S4 (antibody, V domains shown) VH: EVQLVESGGGLVKPGGSLRLSCAASGFSLSSSGMGVGWVRQAPGKGLEWLAHIWWNDEKYYNPSLKSRFTISRDDSKNTLYLQMNSLKTEDTAVYYCARDHLVFFFDLWGQGTLVTVSS VL: DIQMTQSPSSLSASVGDRVTITCKASQDINKYIAWYQQKPGKAPKLLMAYPFTLQPGVPSRFSGSGSGTDFTLTISSLQPEDFATYYCLQYDNLLWTFGQGTKVEIK | – | – | – | 6.2 | – | – | – | –
3 | h12B10-S3 (antibody, V domains shown) VH: EVQLVESGGGLVKPGGSLRLSCAASGFSLSTSGMGVGWVRQAPGKGLEWLAHIWWNDEKYYNPSLKSRFTISRDDSKNTLYLQMNSLKTEDTAVYYCARDHLAFFFDLWGQGTLVTVSS VL: DIQMTQSPSSLSASVGDRVTITCKASQDINKYIAWYQQKPGKAPKLLMAYPFTLQPGVPSRFSGSGSGTDFTLTISSLQPEDFATYYCLQYDNLLWTFGQGTKVEIK | 0.11 | 1.7e-05 | 150000 | 4.9 | – | – | – | –
4 | h12B10-S2 (antibody, V domains shown) VH: EVQLVESGGGLVKPGGSLRLSCAASGFSLSTSGMGVGWVRQAPGKGLEWLAHIWWNDEKYYNPSLKSRFTISRDDSKNTLYLQMNSLKTEDTAVYYCARDHLAFYFDLWGQGTLVTVSS VL: DIQMTQSPSSLSASVGDRVTITCKASQDINKYIAWYQQKPGKAPKLLMAYPFTLQPGVPSRFSGSGSGTDFTLTISSLQPEDFATYYCLQYDNLLWTFGQGTKVEIK | 0.14 | 3.3e-05 | 240000 | 5.4 | – | – | – | –
5 | h13B3-S1 (antibody, V domains shown) VH: QVQLVQSGAEVKKPGASVKVSCKASGYTFTEYTMHWVRQAPGQGLEWMGSINPYYGGTSYNEKFKDRVTMTRDTSTSTVYMELSSLRSEDTAVYYCARYGNYVGYFDYWGQGTTVTVSS VL: EIVLTQSPGTLSLSPGERATLSCRASSSVHYMYWYQQKPGQAPRLLIYYTSNLAPGIPDRFSGSGSGTDFTLTISRLEPEDFAVYYCQQFTSSPYTFGGGTKVEIK | – | – | – | – | 5.7 | 0.00043 | 76000 | 2.4
6 | h13B3-S3 (antibody, V domains shown) VH: QVQLVQSGAEVKKPGASVKVSCKASGYTFTEYTMHWVRQAPGQGLEWMGSINPYYGGTSYNEKFKDRVTMTRDTSTSTVYMELSSLRSEDTAVYYCARYGNYVGYFDYWGQGTTVTVSS VL: EIVLTQSPATLSLSPGERATLSCRASSSVHYMYWYQQKPGQAPRLLIYYTSNLAPGIPARFSGSGSGTDFTLTISSLEPEDFAVYYCQQFTSSPYTFGGGTKVEIK | – | – | – | – | 13 | 0.00085 | 66000 | 4.1
7 | h13B3-S2 (antibody, V domains shown) VH: QVQLVQSGAEVKKPGASVKVSCKASGYTFTEYTMHWVRQAPGQGLEWMGSINPYYGGTSYNEKFKDRVTSTRDTSISTAYMELSRLRSDDTVVYYCARYGNYVGYFDYWGQGTTVTVSS VL: EIVLTQSPGTLSLSPGERATLSCRASSSVHYMYWYQQKPGQAPRLLIYYTSNLAPGIPDRFSGSGSGTDFTLTISRLEPEDFAVYYCQQFTSSPYTFGGGTKVEIK | – | – | – | – | 3.1 | 0.00014 | 45000 | 3.6

Next, values leading:

Row | Kd [1] [nM] | koff [1] [s⁻¹] | kon [1] [M⁻¹ s⁻¹] | Neutralizing activity IC50 [2] [nM] | Kd [3] [nM] | koff [3] [s⁻¹] | kon [3] [M⁻¹ s⁻¹] | Neutralizing activity IC50 [4] [nM] | Binder
8 | – | – | – | – | 36 | 0.0036 | 100000 | 26 | h23H8-S1 (antibody, V domains shown) VH: QVQLVQSGAEVKKPGASVKVSCKASGYTFTDNTIHWVRQAPGQGLEWMGHINPYYGGTNNNEKFKDRVTMTRDTSISTAYMELSRLRSDDTAVYYCARKGIYYSSPFDYWGQGTTVTVSS VL: DIQMTQSPSSLSASVGDRVTITCRASQDINNYLNWYQQKPGKAPKLLIYYTSKLHSGVPSRFSGSGSGTDFTLTISSLQPEDFATYYCQQGNTLPFTFGQGTKLEIK
9 | – | – | – | – | 0.41 | 0.00015 | 370000 | 1.8 | h23H8-S3 (antibody, V domains shown) VH: QVQLVQSGAEVKKPGASVKVSCKASGYTFTDNTIHWVRQAPGQGLEWMGHINPYYGGTNNNEKFKDRVTMTRDTSISTAYMELSRLRSDDTAVYYCARKGIYYSSPFDYWGQGTTVTVSS VL: DIQMTQSPSSLSASVGDRVTITCRASQDINNYLNWYQQKPGKAPKLLISYTSKLHSGVPSRFSGSGSGTDFTLTISSLQPEDFATYYCQQGNTLPFTFGQGTKLEIK
10 | – | – | – | – | 4.3 | 0.00099 | 230000 | 1.7 | h23H8-S2 (antibody, V domains shown) VH: QVQLVQSGAEVKKPGASVKVSCKASGYTFTDNTIHWVRQAPGQGLEWMGHINPYYGGTNNNEKFKDRVTMTRDTSISTAYMELSRLRSDDTAVYYCARKGIYYSSPFDYWGQGTTVTVSS VL: DIQMTQSPSSLSASVGDRVTITCRASQDINNYLNWYQQKPGKAPKLLISYTSKLHSGVPSRFSGSGSGTDFTLTISSLQREDFATYYCQQGNTLPFTFGQGTKLEIK
11 | – | – | – | – | 2.3 | 0.0003 | 130000 | 1.7 | h53A11-S1 (antibody, V domains shown) VH: QVQLVQSGAEVKKPGASVKVSCKASGYTFTDYTMHWVRQAPGQRLEWMGGINPYYGGTTYNEKFKDRVTITRDTSASTAYMELSSLRSEDTAVYYCAKGDYYGGSYNYWGQGTTVTVSS VL: EIVMTQSLATLSVSPGERATLSCRASQDISNSLHWYQQKPGQAPRLLIKYASQSISGIPARFSGSGSGTEFTLTISSLQSEDFAVYYCQQSNSWPYTFGQGTKLEIK
12 | – | – | – | – | 4.3 | 0.00065 | 150000 | 1.8 | h53A11-S2 (antibody, V domains shown) VH: QVQLVQSGAEVKKPGASVKVSCKASGYTFTDYTMHWVRQAPGQRLEWMGGINPYYGGTTYNEKFKDRVTITRDTSASTAYMELSSLRSEDTAVYYCAKGDYYGGSYNYWGQGTTVTVSS VL: EIVMTQSLATLSVSPGERATLSCRASQDISNSLHWYQQKPGQAPRLLIYYASQSISGIPARFSGSGSGTEFTLTISSLQSEDFAVYYCQQSNSWPYTFGQGTKLEIK
13 | – | – | – | – | 5.8 | 0.0007 | 120000 | 1.2 | h53A11-S3 (antibody, V domains shown) VH: QVQLVQSGAEVKKPGASVKVSCKASGYTFTDYTMHWVRQAPGQRLEWMGGINPYYGGTTYNEKFKDRVTITRDTSASTAYMELSSLRSEDTAVYYCAKGDYYGGSYNYWGQGTTVTVSS VL: EIVMTQSPATLSVSPGERATLSCRASQDISNSLHWYQQKPGQAPRLLIKYASQSISGIPARFSGSGSGTEFTLTISSLQSEDFAVYYCQQSNSWPYTFGQGTKLEIK
14 | – | – | – | – | 3.5 | 0.00038 | 110000 | 2.9 | h13B3-S4 (antibody, V domains shown) VH: QVQLVQSGAEVKKPGASVKVSCKASGYTFTEYTMHWVRQAPGQGLEWMGSINPYYGGTSYNEKFKDRVTSTRDTSISTAYMELSRLRSDDTVVYYCARYGNYVGYFDYWGQGTTVTVSS VL: EIVLTQSPATLSLSPGERATLSCRASSSVHYMYWYQQKPGQAPRLLIYYTSNLAPGIPARFSGSGSGTDFTLTISSLEPEDFAVYYCQQFTSSPYTFGGGTKVEIK
15 | – | – | – | – | 11 | 0.001 | 94000 | 3.6 | h16B3-S1 (antibody, V domains shown) VH: EVQLVESGGGLVQPGGSLRLSCAASGFTFSGYTMSWVRQAPGKGLEWVSEISFARDRAFYPDTVKGRFTISRDNSKNTLYLQMNSLRAEDTAVYYCAKLGGRNHDYWYFDVWGQGTTVTVSS VL: DIVMTQSPDSLAVSLGERATINCRASESVEYYGTSLMQWYQQKPGQPPKLLIYAASNVESGVPDRFSGSGSGTDFTLTISSLQAEDVAVYYCQQSWKVPFTFGQGTKLEIK
